The values below come from article PMC10433801.

One data set deals with CsrA-H6 (Salmonella Typhimurium / Escherichia coli (sequences stated identical)) (UniProt P69913). Briefly: EMSA. As to conditions: RNA EMSA: 10 mM Tris-HCl pH 7.5, 10 mM MgCl2, 100 mM KCl, 200 ng/uL yeast RNA, 0.2 mg/mL BSA, 7.5% glycerol, 20 mM DTT, 37 C 30 min; DNA EMSA: 10 mM Tris pH …. On the technique in general: In EMSA bound probe runs differently from free probe, usually more slowly.
CsrA-H6 (Salmonella Typhimurium / Escherichia coli (sequences stated identical)) (UniProt P69913), sequence (P69913 whole entry): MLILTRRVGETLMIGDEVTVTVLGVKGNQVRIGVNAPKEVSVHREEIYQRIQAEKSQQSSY
“GGGACAAAAAAUUGCCACGAUGACGGCAGUUUCAGUGGAGACGGUGAGCAAUGAAUAAAGAACGCAUUAUUCAGGAAUUUGUGCCGGGCAAACAGGUC [eutS RNA (-47 to +48)]” displayed a Kd of 5.7 nM. In turn, “GGGACUUUUUAUCAGGGCCAGGAUAAUGGUAAUAAAAAGUGAAUGUAAAUAAUGUGUUUUGUUUAUAACAAUAAAUUAACUGAGGGGUUUUAUCAUG [pocR RNA (-91 to +3)]” had a Kd of 7.4 nM. For the substance “GGGUUCUUAUAGUCCCAACUAUCGGAACACUCCAUGCGAGGUCUUUAUGCAACAAGAAGCACUAGGAAUGGUAGAAACCAAAGG [pduA RNA (-44 to +38)]”, the Kd was 31 nM.

In the next data set the test system is CsrA-H6 (Salmonella Typhimurium / Escherichia coli (sequences stated identical)). Briefly: EMSA. The note with it: 10 mM MgCl2; yeast RNA 200 ng/uL; apparent Kd; RNA EMSA: 10 mM Tris-HCl pH 7.5, 10 mM MgCl2, 100 mM KCl, 200 ng/uL yeast RNA, 0.2 mg/mL BSA, 7.5% glycerol, 20 mM DTT, 37 C 30 min; DNA EMSA: 10 mM Tris pH ….
Turning to pocR RNA (-91 to +3), the Kd came out at 7.4 nM. In the case of pduA RNA (-44 to +38), the Kd came to 31 nM. For the substance eutS RNA (-47 to +48), the Kd was determined as 5.7 nM.
